Source: publication PMC4854415, “The Human Sodium-Glucose Cotransporter (hSGLT1) Is a Disulfide-Bridged Homodimer with a Re-Entrant C-Terminal Loop” (PLoS ONE, 2016)

Target: the molecule itself
Experiment: SDS-PAGE without reducing agent and western blot; total membrane preparation of oocytes expressing myc-tagged hSGLT1, 7.5 or 10% polyacrylamide gel, absence of β-Mercaptoethanol, detected with α-c-myc

B1: wt myc-tagged human sodium-glucose cotransporter 1 (hSGLT1) (natural protein, UniProt P13866 1-664, looked up)
chain: MDSSTWSPKTTAVTRPVETHELIRNAADISIIVIYFVVVMAVGLWAMFSTNRGTVGGFFLAGRSMVWWPIGASLFASNIGSGHFVGLAGTGAASGIAIGGFEWNALVLVVVLGWLFVPIYIKAGVVTMPEYLRKRFGGQRIQVYLSLLSLLLYIFTKISADIFSGAIFINLALGLNLYLAIFLLLAITALYTITGGLAAVIYTDTLQTVIMLVGSLILTGFAFHEVGGYDAFMEKYMKAIPTIVSDGNTTFQEKCYTPRADSFHIFRDPLTGDLPWPGFIFGMSILTLWYWCTDQVIVQRCLSAKNMSHVKGGCILCGYLKLMPMFIMVMPGMISRILYTEKIACVVPSECEKYCGTKVGCTNIAYPTLVVELMPNGLRGLMLSVMLASLMSSLTSIFNSASTLFTMDIYAKVRKRASEKELMIAGRLFILVLIGISIAWVPIVQSAQSGQLFDYIQSITSYLGPPIAAVFLLAIFWKRVNEPGAFWGLILGLLIGISRMITEFAYGTGSCMEPSNCPTIICGVHYLYFAIILFAISFITIVVISLLTKPIPDVHLYRLCWSLRNSKEERIDLDAEEENIQEGPKETIEIETQVPEKKKGIFRRAYDLFCGLEQHGAPKMTEEEEKAMKMKMTDTSEKPLWRTVLNVNGIILVTVAVFCHAYFA
notes: human sodium-glucose cotransporter 1 (hSGLT1), wild type; Dimer held by a disulfide bridge between the C355 residues of two molecules, by non-reducing western blot; also called wt hSGLT1; wtSGLT1; source: Xenopus laevis oocytes injected with mRNA, total membrane preparation
stoichiometry N: 2
